Results on four molecules are retold here after article PMC11858715 (Molecules, 2025).

A word on the Kd: it is a measure of binding affinity in units of concentration. Read a high Kd as lower affinity. What is called stoichiometry N is a count of units in the complex or per binding partner.

Common to all, as to assay: other fluorescence titration
What all share (conditions): both partners purified

Test [1] concerns the target T1, sense peptide S1 ([…]), ammodytoxin A segment from position 6 to 11 (Vipera ammodytes).
T1 construct: source: synthetic peptide, bought: GenScript Biotech B.V

Test [2] concerns the target T2, sense peptide S2 (YIYRNYPDF), ammodytoxin A segment from position 115 to 124 (Vipera ammodytes).
T2 peptide: YIYRNYPDF

Test [3] has as its target T2, sense peptide S2 (YIYRNYPDF), ….

Take SHHYSP (designed binder) [antisense peptide S1A2 (SHHYSP)]: binding in test [1] was put at a Kd of 1.4 µM.
For the molecule INISIVGVK (designed binder) [antisense peptide S2A1 (INISIVGVK)], in test [2], the “stoichiometry N” value was 1. Moreover, binding in test [3] was characterised by a dissociation constant (Kd) of 1.1 µM.
Turning to VNISVIGIK (designed binder) [antisense peptide S2A2 (VNISVIGIK)], the “stoichiometry N” value in test [2] turned out to be 1. Moreover, the equilibrium dissociation constant (Kd) in test [3] is 8.9 µM.

B1: antisense peptide S1A1 (SHHYEP) (designed binder)
peptide: SHHYEP
notes: source: synthetic peptide, bought: GenScript Biotech B.V
With B1, binding in test [1] was characterised by a dissociation constant (Kd) of 4.9 µM. That is a single-digit micromolar value.
